The results in this text go back to patent US20220144936A1.

The target in test [1] is recombinant human IL17A protein (human) (UniProt Q16552). Kind of test: Octet (BLI), biotinylated IL17A, antibody 0.90-13.9 nM. (BLI is a label-free optical method that tracks binding on a fibre tip over time.)
Test [2] shares this target. Kind of test: cell-based or functional assay.
Test [3] concerns the target recombinant human IL17A/F dimer protein (SinoBiological, Inc., CT047-HNAE) (human) (UniProt Q16552). Kind of test: cell-based or functional assay.
Test [4] shares this target. Kind of test: Octet (BLI), biotinylated IL17A/F, antibody 0.90-13.9 nM.
Test [5] concerns the target recombinant human IL17A protein (human) (UniProt Q16552). Kind of test: ELISA: IL17A coated at different concentrations, antibody fixed at 2 µg/mL, anti-human IgG Fc/HRP; EC50 is on the antigen concentration. A general note: An ELISA detects its analyte on a solid surface through an enzyme-linked reagent.
Test [6] concerns the target recombinant human IL17A/F dimer protein (SinoBiological, Inc., CT047-HNAE) (human) (UniProt Q16552). Kind of test: ELISA: IL17A/F coated at different concentrations, antibody fixed at 2 µg/mL, anti-human IgG Fc/HRP; EC50 is on the antigen concentration.
Test [7] has as its target recombinant human IL17A protein (human) (UniProt Q16552). Kind of test: competition ELISA: IL17A coated, competitor IL17RA-His-biotin at 2 µg/mL, antibody varied.
Test [8] has as its target recombinant human IL17A/F dimer protein (SinoBiological, Inc., CT047-HNAE) (human) (UniProt Q16552). Kind of test: competition ELISA: IL17RA-Fc coated (competitor), IL17A/F-Biotin at 0.8 µg/mL, antibody varied.

pKd: −log10 of the molar value.

Chain of recombinant human IL17A/F dimer protein (SinoBiological, Inc., CT047-HNAE) (human) (Q16552 24-155 limits assumed, chain 1 of 2): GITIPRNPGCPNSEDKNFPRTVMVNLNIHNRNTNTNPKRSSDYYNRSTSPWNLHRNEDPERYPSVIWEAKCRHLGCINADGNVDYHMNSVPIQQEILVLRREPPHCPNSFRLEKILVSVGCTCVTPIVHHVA
Chain of recombinant human IL17A/F dimer protein (SinoBiological, Inc., CT047-HNAE) (human) (Q96PD4 31-163 limits assumed, chain 2 of 2, further chain): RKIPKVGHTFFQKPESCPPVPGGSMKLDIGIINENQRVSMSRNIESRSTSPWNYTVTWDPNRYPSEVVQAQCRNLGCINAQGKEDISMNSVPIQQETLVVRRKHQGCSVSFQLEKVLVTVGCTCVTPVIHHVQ
Chain of recombinant human IL17A protein (human) (Q16552 24-155 limits assumed): as the sequence (Q16552 24-155 limits assumed, chain 1 of 2) above

For COSENTYX (Norvatis, SHM12) (antibody), the pKd in test [1] was 10.02. Further, in test [2], the EC50 (µg/mL), blocking IL17A-induced IL6 secretion of HFF cells is 0.22 µg/mL and the Maximum neutralization rate (%), IL17A-induced IL6 secretion of HFF cells turned out to be 51.6%. Besides, in test [3], the EC50 (µg/mL), blocking IL17A/F-induced IL6 secretion of HFF cells is 2.25 µg/mL and the Maximum neutralization rate (%), IL17A/F-induced IL6 secretion of HFF cells was 79.5%. For the same substance, in test [4], the pKd is 8.96.
“COSENTYX biosimilar (SinoCelltech Co., Ltd.) (antibody)”: the results for the half-maximal effective concentration (EC50) in test [5] and in test [6] were 0.0748 µg/mL and 0.0639 µg/mL, respectively.
Take Taltz (Eli Lilly) (antibody): in test [2], the EC50 (µg/mL), blocking IL17A-induced IL6 secretion of HFF cells was determined as 0.19 µg/mL and the Maximum neutralization rate (%), IL17A-induced IL6 secretion of HFF cells turned out to be 95.9%. In test [3], the EC50 (µg/mL), blocking IL17A/F-induced IL6 secretion of HFF cells was found to be 1.1 µg/mL and the Maximum neutralization rate (%), IL17A/F-induced IL6 secretion of HFF cells was found to be 76.3%. Besides, in test [7], the IC50 turned out to be 0.5 µg/mL and the maximum inhibition rate was determined as 89.5%.
For “Taltz biosimilar (SinoCelltech Co., Ltd.) (antibody)”, in test [8], the maximum inhibition rate came to 75%. Besides, in test [2], the EC50 of blocking IL17A-induced IL-6 secretion of HFF cells stood at 0.247 µg/mL and the maximum inhibition rate of IL17A-induced IL-6 secretion of HFF cells is 97.3%.

The pKd is the negative decadic logarithm of the Kd, by convention in mol/L. Usually EC50 stands for the concentration giving half of the maximal effect. Broadly, the IC50 is the concentration that inhibits the measured activity by half.
